A short description of the data set: self-splicing fitness, log relative to wild type (ln ratio); higher = more splicing; Tetrahymena group I intron in knt gene, E. coli kanamycin selection, DiMSum; sequences stand for … in CUCUCU…GGAGGGAAAAGUUAUCAGGCAUGCACCUGGUAGCUAGUCUUUAAACCAAUAGAUUGCAUCGGUUUAAAAGGCAAGACCGUCAAAUUGCGGGAAAGGGGUCAACAGCCGUUCAGUACCAAGUCUCAGGGGAAACUUUGAGAUGGCCUUGCAAAGGGUAUGGUAAUAAGCUGACGGACAUGGUCCUAACCACGCAGCCAAGUCCUAAGUCAACAGAUCUUCUGUUGAUAUGGAUGCAGUUCACAGACUAAAUGUCGGUCGGGGAAGAUGUAUUCUUCUCAUAAGAUAUAGUCGGACCUCUCCUUAAUGGGAGCUAGCGGAUGAAGUGAUGCAACACUGGAGCCGCUGGGAACUAAUUUGUAUGCGAAAGUAUAUUGAUUAGUUUUGGAGUACUCGUGGUCG
In a few lines:
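DiMSum derived fitness as the error-weighted combination of fold changes across replicates, kanamycin versus no kanamycin, normalised to wild type. E. coli BL21(DE3) held the library, which randomised all eight P1ex-region intron nucleotides within the knt kanamycin-resistance gene on pET-22b(+). Six replicate transformations grew overnight at 37°C or 30°C on LB agar with or without 25 μg/mL kanamycin, also containing 100 μg/mL carbenicillin, 50 μM IPTG and 0.2% rhamnose, and pooled colonies were amplicon-sequenced on an Illumina HiSeq 2500.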

± gives the uncertainty stated by the source.

Turning to UAACAGCAAUAUUACGUUGA, the “self-splicing fitness (ln)” value (30 °C) was -2.95 ± 0.14 and the “self-splicing fitness (ln)” value (37 °C) was -1.34 ± 0.1. For the sequence UACAAGCAAUAUUACGGGAA, the “self-splicing fitness (ln)” value was -2.41 ± 0.12 (30 °C) and -1.6 ± 0.097 (37 °C). Regarding GGAGAGCAAUAUUACGGUGC, the “self-splicing fitness (ln)” value (30 °C) was -3.03 ± 0.12 and the “self-splicing fitness (ln)” value (37 °C) was -1.57 ± 0.11.

Regarding AUCUAGCAAUAUUACGAUUC, the “self-splicing fitness (ln)” value is -2.85 ± 0.18 (30 °C) and -1.23 ± 0.16 (37 °C).

Consider AUCAAGCAAUAUUACGAGUC, for which the “self-splicing fitness (ln)” value runs as follows: (30 °C) -3.08 ± 0.23; (37 °C) -2.19 ± 0.24. As to CUAUAGCAAUAUUACGGGUU, the “self-splicing fitness (ln)” value runs as follows: (30 °C) -3.13 ± 0.23; (37 °C) -1.38 ± 0.19. With CGUCAGCAAUAUUACGCCUC, for the setting “37 °C”, the “self-splicing fitness (ln)” value was -3.1 ± 0.34. For the sequence CCCCAGCAAUAUUACGACCG, the “self-splicing fitness (ln)” value is, setting by setting: (30 °C) -4.12 ± 0.26; (37 °C) -1.76 ± 0.34. CUUAAGCAAUAUUACGCCGG: the “self-splicing fitness (ln)” value is, setting by setting: (30 °C) -4.01 ± 0.33; (37 °C) -1.85 ± 0.25. For the sequence AGUCAGCAAUAUUACGUACU, the “self-splicing fitness (ln)” value is -1.92 ± 0.13 (30 °C) and -0.881 ± 0.13 (37 °C). As to GGAGAGCAAUAUUACGUACA, for the setting “37 °C”, the “self-splicing fitness (ln)” value is -1.61 ± 0.47. As to CAAUAGCAAUAUUACGGGUU, the “self-splicing fitness (ln)” value is -4.25 ± 0.2 (30 °C) and -2.31 ± 0.14 (37 °C).

Consider GUUGAGCAAUAUUACGACUG, for which the “self-splicing fitness (ln)” value reads like this: (30 °C) -2.97 ± 0.32; (37 °C) 0.138 ± 0.22. Turning to CUUCAGCAAUAUUACGCUAA, the “self-splicing fitness (ln)” value runs as follows: (30 °C) -3.37 ± 0.26; (37 °C) -2.3 ± 0.3. Consider GGAAAGCAAUAUUACGGGCC, for which the “self-splicing fitness (ln)” value is, setting by setting: (30 °C) -2.41 ± 0.23; (37 °C) -2.16 ± 0.32. With GCCCAGCAAUAUUACGAUAU, the “self-splicing fitness (ln)” value reads like this: (30 °C) -1.54 ± 0.077; (37 °C) -1.31 ± 0.1. On the same counts, the results for UCAAAGCAAUAUUACGAUUC are -3.67 ± 0.27 and -2.63 ± 0.28. Turning to GGACAGCAAUAUUACGAAUA, the “self-splicing fitness (ln)” value is -1.69 ± 0.13 (30 °C) and -0.937 ± 0.13 (37 °C). On to AUCCAGCAAUAUUACGGUGC, for which the “self-splicing fitness (ln)” value by setting is: (30 °C) -1.6 ± 0.096; (37 °C) -1.27 ± 0.14. For GAAAAGCAAUAUUACGAAUG, the “self-splicing fitness (ln)” value runs as follows: (30 °C) -1.89 ± 0.07; (37 °C) -1.19 ± 0.08. In the case of GCCCAGCAAUAUUACGUCCC, the “self-splicing fitness (ln)” value by setting is: (30 °C) -1.49 ± 0.17; (37 °C) 0.384 ± 0.17. On the same counts, the results for GAAGAGCAAUAUUACGAAGA are -2.62 ± 0.26 and -2.48 ± 0.24.

Consider GCCUAGCAAUAUUACGCCCU, for which the “self-splicing fitness (ln)” value is, setting by setting: (30 °C) -0.974 ± 0.097; (37 °C) 0.335 ± 0.13. Turning to CGGUAGCAAUAUUACGGGUG, the “self-splicing fitness (ln)” value by setting is: (30 °C) -0.483 ± 0.068; (37 °C) 0.146 ± 0.077. Regarding CACCAGCAAUAUUACGAAAA, the “self-splicing fitness (ln)” value (30 °C) was -3.1 ± 0.2 and the “self-splicing fitness (ln)” value (37 °C) is -2.33 ± 0.2. Turning to GUCAAGCAAUAUUACGAGAA, the “self-splicing fitness (ln)” value (30 °C) is -3.59 ± 0.36 and the “self-splicing fitness (ln)” value (37 °C) was -1.83 ± 0.2.

As to ACAUAGCAAUAUUACGGAAU, the “self-splicing fitness (ln)” value reads like this: (30 °C) -3.72 ± 0.19; (37 °C) -2.44 ± 0.19. With CCCAAGCAAUAUUACGCAGC, the “self-splicing fitness (ln)” value is, setting by setting: (30 °C) -3.93 ± 0.29; (37 °C) -3.49 ± 0.34. Turning to AGCUAGCAAUAUUACGUGGG, the “self-splicing fitness (ln)” value was -4.49 ± 0.2 (30 °C) and -2.72 ± 0.15 (37 °C). Consider CAGCAGCAAUAUUACGUGUU, for which the “self-splicing fitness (ln)” value is, setting by setting: (30 °C) -4.61 ± 0.22; (37 °C) -2.5 ± 0.13. The matching figures for ACUCAGCAAUAUUACGCCGA: -3.36 ± 0.39 and -2.3 ± 0.28. On the same counts, the results for UCUCAGCAAUAUUACGACGU are -0.386 ± 0.07 and -0.541 ± 0.08. For UCGUAGCAAUAUUACGAACU, the “self-splicing fitness (ln)” value reads like this: (30 °C) -3.21 ± 0.38; (37 °C) -2.63 ± 0.33. For UAACAGCAAUAUUACGUCCA, the “self-splicing fitness (ln)” value is, setting by setting: (30 °C) -0.357 ± 0.091; (37 °C) -0.0151 ± 0.12. On the same counts, the results for AUACAGCAAUAUUACGUACU are -0.171 ± 0.059 and 0.38 ± 0.083. For UGCUAGCAAUAUUACGUACU, the “self-splicing fitness (ln)” value by setting is: (30 °C) -0.707 ± 0.075; (37 °C) -0.893 ± 0.089. As for GGAAAGCAAUAUUACGAUGU, the “self-splicing fitness (ln)” value (30 °C) is -1.69 ± 0.094 and the “self-splicing fitness (ln)” value (37 °C) was -0.262 ± 0.13. The matching figures for UAUAAGCAAUAUUACGUGUU: -3.24 ± 0.17 and -2.22 ± 0.22.

These data come from the supplement of paper PMC7877785.
